For five substances, Kd results are on record in PMC3114107.

Where two headings read alike, the source gives them in different places.

Assay [1] has as its target [Lys]plasminogen (human). The assay can be described thus: steady-state kinetics of Pg activation.
In assay [2] the target is [Lys]plasminogen (human). The assay is described as follows: steady-state kinetics of Pg activation. This is another data set of the same source.
The target of assay [3] is [5F]FFR-[Lys]Pg ([Lys]plasminogen inactivated with ATA-FFR-CH2Cl and labeled with 5-(iodoacetamido)fluorescein) (human). The assay can be described thus: other fluorescence titration.
Chain of [5F]FFR-[Lys]Pg ([Lys]plasminogen inactivated with ATA-FFR-CH2Cl and labeled with 5-(iodoacetamido)fluorescein) (human) (P00747 whole entry): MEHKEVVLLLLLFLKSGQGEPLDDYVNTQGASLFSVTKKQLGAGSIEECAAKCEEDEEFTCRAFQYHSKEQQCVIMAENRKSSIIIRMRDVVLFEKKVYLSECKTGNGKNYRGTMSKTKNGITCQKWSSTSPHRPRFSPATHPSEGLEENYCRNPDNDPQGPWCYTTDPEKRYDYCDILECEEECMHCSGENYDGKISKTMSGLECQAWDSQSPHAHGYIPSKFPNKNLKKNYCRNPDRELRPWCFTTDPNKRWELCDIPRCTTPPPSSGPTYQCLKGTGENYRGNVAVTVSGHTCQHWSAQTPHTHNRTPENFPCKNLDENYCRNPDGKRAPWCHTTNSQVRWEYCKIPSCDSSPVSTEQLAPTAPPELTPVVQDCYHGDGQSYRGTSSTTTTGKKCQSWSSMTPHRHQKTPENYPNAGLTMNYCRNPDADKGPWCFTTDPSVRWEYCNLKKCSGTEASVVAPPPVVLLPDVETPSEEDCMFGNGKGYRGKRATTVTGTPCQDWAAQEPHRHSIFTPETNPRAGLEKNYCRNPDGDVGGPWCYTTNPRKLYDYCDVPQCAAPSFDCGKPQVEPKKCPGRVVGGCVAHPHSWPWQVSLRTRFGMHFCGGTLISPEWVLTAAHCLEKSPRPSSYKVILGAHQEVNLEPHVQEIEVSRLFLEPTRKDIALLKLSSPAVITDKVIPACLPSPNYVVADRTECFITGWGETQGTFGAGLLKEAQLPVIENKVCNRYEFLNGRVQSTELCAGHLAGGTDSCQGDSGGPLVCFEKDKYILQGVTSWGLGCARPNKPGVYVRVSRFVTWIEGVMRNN
Assay [4] shares this target. The assay can be described thus: other fluorescence titration. The source holds these as a separate data set.

Chain of [Lys]plasminogen (human) (P00747 whole entry): as above

As usually defined, the Kd is the free concentration of one partner at which half of the binding sites on the other are occupied at equilibrium, for simple one-to-one binding. A low value points to higher affinity. Substance “Native streptokinase (from UniProt P00779 27-440) (natural protein)” returned a Kd in assay [Lys]plasminogen (human) [1] of 1.6 nM.
In the case of “SKΔ(R253-L260) (from UniProt P00779 27-440) (natural protein)”, in assay [Lys]plasminogen (human) [2], the Kd is 78 nM.
On to “SKΔ(R253-L260)ΔK414-His6 (TEVp-cleaved His6-(TEVp cleavage site)-SKΔ(R253-L260)ΔK414-His6) (from UniProt P00779 27-440) (natural protein)”, for which the Kd in assay [Lys]plasminogen (human) [1] was found to be 28 nM; in assay [3] it was 820 nM; in assay [4], 470 nM.
For “recombinant wild-type streptokinase (from UniProt P00779 27-440) (natural protein)”, the Kd in assay [Lys]plasminogen (human) [2] was determined as 33 nM; in assay [Lys]plasminogen (human) [1] it was 1.6 nM.
Regarding “wtSK-His6 (TEVp-cleaved His6-wtSK-His6) (from UniProt P00779 27-440) (natural protein)”, the Kd in assay [Lys]plasminogen (human) [2] was 32 nM; in assay [3], 290 nM; in assay [4] it was 240 nM.
